Test results from article PMC10397247.

Legend:
O11-AA = target: T1, O11-AA; assay: two-hybrid library CCmax; conditions: mean of both orientations;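 further: natural log of median RNA to DNA barcode read ratio; higher means stronger binding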
T1 chain: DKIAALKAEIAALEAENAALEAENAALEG

4H3590-AA = target: T2, 4H3590-AA; assay: two-hybrid library CCmax; conditions: mean of both orientations;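 further: natural log of median RNA to DNA barcode read ratio; higher means stronger binding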
T2 chain: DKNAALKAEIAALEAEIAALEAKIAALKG

O13-AA = target: T3, O13-AA; assay: two-hybrid library CCmax; conditions: mean of both orientations;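 further: natural log of median RNA to DNA barcode read ratio; higher means stronger binding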
T3 chain: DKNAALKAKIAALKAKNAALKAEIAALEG

O14-AA = target: T4, O14-AA; assay: two-hybrid library CCmax; conditions: mean of both orientations;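 further: natural log of median RNA to DNA barcode read ratio; higher means stronger binding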
T4 chain: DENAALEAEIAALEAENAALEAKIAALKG

4H451-AA = target: T5, 4H451-AA; assay: two-hybrid library CCmax; conditions: mean of both orientations
T5 chain: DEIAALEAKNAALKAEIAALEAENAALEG

GCN2_T = assay: two-hybrid library CCmax; conditions: mean of both orientations
4H1193-AA = target: T6, 4H1193-AA; assay: two-hybrid library CCmax
T6 chain: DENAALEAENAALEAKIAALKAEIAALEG

4H_APH = target: T7, 4H_APH; assay: two-hybrid library CCmax; conditions: mean of both orientations
T7 chain: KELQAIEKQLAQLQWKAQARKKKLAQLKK

4H4038-AA = target: T8, 4H4038-AA; assay: two-hybrid library CCmax; conditions: mean of both orientations
T8 chain: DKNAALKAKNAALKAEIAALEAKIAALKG

4H3625-AA = target: T9, 4H3625-AA; assay: two-hybrid library CCmax; conditions: mean of both orientations
T9 chain: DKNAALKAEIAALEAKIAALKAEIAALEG

4H2622-AA = target: T10, 4H2622-AA; assay: two-hybrid library CCmax; conditions: mean of both orientations
T10 chain: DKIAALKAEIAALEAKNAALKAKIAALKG

4H1392-AA = target: T11, 4H1392-AA; assay: two-hybrid library CCmax; conditions: mean of both orientations
T11 chain: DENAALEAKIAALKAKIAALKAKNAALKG

4H3905-AA = target: T12, 4H3905-AA; assay: two-hybrid library CCmax; conditions: mean of both orientations
T12 chain: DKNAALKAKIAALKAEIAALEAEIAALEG

4H1385-AA = target: T13, 4H1385-AA; assay: two-hybrid library CCmax; conditions: mean of both orientations
T13 chain: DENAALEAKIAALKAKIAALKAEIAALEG

4H134-AA = target: T14, 4H134-AA; assay: two-hybrid library CCmax; conditions: mean of both orientations
T14 chain: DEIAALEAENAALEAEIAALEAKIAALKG

4H3587-AA = target: T15, 4H3587-AA; assay: two-hybrid library CCmax; conditions: mean of both orientations
T15 chain: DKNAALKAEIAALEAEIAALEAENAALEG

4H2736-AA = target: T16, 4H2736-AA; assay: two-hybrid library CCmax; conditions: mean of both orientations
T16 chain: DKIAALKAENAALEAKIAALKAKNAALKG

4H384-AA = target: T17, 4H384-AA; assay: two-hybrid library CCmax; conditions: mean of both orientations
T17 chain: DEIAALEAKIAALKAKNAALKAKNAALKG

4H2705-AA = target: T18, 4H2705-AA; assay: two-hybrid library CCmax; conditions: mean of both orientations
T18 chain: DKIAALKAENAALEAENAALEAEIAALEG

4H1350-AA = target: T19, 4H1350-AA; assay: two-hybrid library CCmax; conditions: mean of both orientations
T19 chain: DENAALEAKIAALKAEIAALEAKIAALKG

4H3049-AA = target: T20, 4H3049-AA; assay: two-hybrid library CCmax; conditions: mean of both orientations
T20 chain: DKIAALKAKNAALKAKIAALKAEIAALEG

4H2888-AA = target: T21, 4H2888-AA; assay: two-hybrid library CCmax; conditions: mean of both orientations
T21 chain: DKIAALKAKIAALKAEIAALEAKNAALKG

4H337-AA = target: T22, 4H337-AA; assay: two-hybrid library CCmax; conditions: mean of both orientations
T22 chain: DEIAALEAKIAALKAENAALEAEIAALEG

4H_BCR = target: T23, 4H_BCR; assay: two-hybrid library CCmax; conditions: mean of both orientations
T23 chain: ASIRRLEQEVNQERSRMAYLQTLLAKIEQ

4H43-AA = target: T24, 4H43-AA; assay: two-hybrid library CCmax; conditions: mean of both orientations
T24 chain: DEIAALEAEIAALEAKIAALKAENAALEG

4H510-AA = target: T25, 4H510-AA; assay: two-hybrid library CCmax; conditions: mean of both orientations
T25 chain: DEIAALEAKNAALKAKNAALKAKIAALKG

4H_GCN4 = assay: two-hybrid library CCmax
Sequence of 4H_GCN4 (chain, as listed by the source): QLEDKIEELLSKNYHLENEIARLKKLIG

4H3628-bH = target: T26, 4H3628-bH; assay: two-hybrid library CCNG1
T26 chain: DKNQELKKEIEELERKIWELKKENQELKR

4H1544-bH = target: T27, 4H1544-bH; assay: two-hybrid library CCNG1
T27 chain: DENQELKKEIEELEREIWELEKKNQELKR

4H3858-bH = target: T28, 4H3858-bH; assay: two-hybrid library CCNG1
T28 chain: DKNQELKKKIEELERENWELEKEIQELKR

4H1899-bH = target: T29, 4H1899-bH; assay: two-hybrid library CCNG1
T29 chain: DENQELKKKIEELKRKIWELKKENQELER

4H850-bH = target: T30, 4H850-bH; assay: two-hybrid library CCNG1
T30 chain: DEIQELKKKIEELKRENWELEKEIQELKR

4H3817-bH = target: T31, 4H3817-bH; assay: two-hybrid library CCNG1
T31 chain: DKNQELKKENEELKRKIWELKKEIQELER

4H1985-bH = target: T32, 4H1985-bH; assay: two-hybrid library CCNG1
T32 chain: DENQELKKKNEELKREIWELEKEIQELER

4H1338-bH = target: T33, 4H1338-bH; assay: two-hybrid library CCNG1
T33 chain: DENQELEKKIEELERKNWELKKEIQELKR

4H570-bH = target: T34, 4H570-bH; assay: two-hybrid library CCNG1
T34 chain: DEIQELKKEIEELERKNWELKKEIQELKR

4H1449-bH = target: T35, 4H1449-bH; assay: two-hybrid library CCNG1
T35 chain: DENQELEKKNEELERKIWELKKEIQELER

4H3974-bH = target: T36, 4H3974-bH; assay: two-hybrid library CCNG1
T36 chain: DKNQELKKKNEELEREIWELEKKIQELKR

4H1710-bH = target: T37, 4H1710-bH; assay: two-hybrid library CCNG1
T37 chain: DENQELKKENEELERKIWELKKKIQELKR

4H1348-bH = target: T38, 4H1348-bH; assay: two-hybrid library CCNG1
T38 chain: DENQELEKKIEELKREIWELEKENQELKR

4H1373-bH = target: T39, 4H1373-bH; assay: two-hybrid library CCNG1
T39 chain: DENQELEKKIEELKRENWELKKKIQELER

4H3613-bH = target: T40, 4H3613-bH; assay: two-hybrid library CCNG1
T40 chain: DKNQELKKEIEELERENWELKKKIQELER

B1: 4H1193-AA (peptide)
chain: DENAALEAENAALEAKIAALKAEIAALEG
Work on B1 yielded an interaction score (O11-AA) of -1.11, an interaction score (4H3590-AA) of 1.11 and an interaction score (O13-AA) of -0.387. For the same binder, the interaction score (O14-AA) was -1.3, the interaction score (4H451-AA) was -1.06 and the interaction score (GCN2_T) was -1.62. For the same binder, the interaction score (4H1193-AA) was -1.08, the interaction score (4H_APH) was -1.85 and the interaction score (4H4038-AA) was 2.18. For the same binder, the interaction score (4H3625-AA) was 0.75, the interaction score (4H2622-AA) was 1.87 and the interaction score (4H1392-AA) was -0.855. It also gave an interaction score (4H3905-AA) of -0.00198, an interaction score (4H1385-AA) of -0.776 and an interaction score (4H134-AA) of 1.42. The interaction score (4H3587-AA) was 0.0373, the interaction score (4H2736-AA) was -0.353 and the interaction score (4H384-AA) was -1.19. The interaction score (4H2705-AA) was -1.54, the interaction score (4H1350-AA) was 1.11 and the interaction score (4H3049-AA) was 1.47. For the same binder, the interaction score (4H2888-AA) was 0.331, the interaction score (4H337-AA) was -1.69 and the interaction score (4H_BCR) was -1.78. The interaction score (4H43-AA) was -0.557, the interaction score (4H510-AA) was -0.152 and the interaction score (4H_GCN4) was -1.64.

B2: 4H1338-bH (peptide)
chain: DENQELEKKIEELERKNWELKKEIQELKR
Work on B2 yielded an interaction score (4H3628-bH) of 0.15, an interaction score (4H1544-bH) of 0.712 and an interaction score (4H3858-bH) of 1.35. The interaction score (4H1899-bH) was -0.277, the interaction score (4H850-bH) was 1.44 and the interaction score (4H3817-bH) was -0.423. For the same binder, the interaction score (4H1985-bH) was 0.0593, the interaction score (4H1338-bH) was 0.937 and the interaction score (4H570-bH) was -0.436. The interaction score (4H1449-bH) was -0.182, the interaction score (4H3974-bH) was 0.694 and the interaction score (4H1710-bH) was -0.178. It also gave an interaction score (4H1348-bH) of 1.22, an interaction score (4H1373-bH) of 0.156 and an interaction score (4H3613-bH) of -0.0861.
